Experimental data from US20230295259A1 (Protagonist Therapeutics, Inc., priority 2020, published 2023).
Starred links: 1 amine or outer side, 2 acyl side, 3 side chain; linkers in the order of their positions; H or OH if unused. Non-standard residues stand in square brackets, D forms with d. Groups on a side chain read outwards from the residue. *: point of attachment. Gal = N6-(4-(galactopyranosyloxy)butanoyl) on the lysine side chain; C18 diacid = O=C(O)CCCCCCCCCCCCCCCCC(=O)*; Dip = N[C@H](C(=O)O)C(c1ccccc1)c1ccccc1; γGlu = O=C(O)[C@H](CCC(=O)[*:2])N[*:1]; Palmitoyl = CCCCCCCCCCCCCCCC(=O)*; β3hF = N[C@H](CC(=O)O)Cc1ccccc1; 4Amb = NCc1ccc(C(=O)O)cc1; Isovaleryl = CC(C)CC(=O)*; NMeA = CN[C@@H](C)C(=O)O; AEEA = NCCOCCOCC(=O)O; Acryloyl = C=CC(=O)*; Ahx = NCCCCCC(=O)O

B1: Seq. No. 564 (peptide)
peptide: XETXXPCIXXXC
modifications: not fully specified; [Isovaleric Acid]-E-T-[N-(Imidazolethyl)Gly]-[Dpa]-P-C-I-[Lys(1PEG2_1PEG2_Ahx_C18_Diacid)]-[bhPhe]-[(D)Lys]-C-NH2
B2: Seq. No. 557 (peptide)
peptide: XXTHXPCIXXXC
modifications: not fully specified; [Isovaleric Acid]-[Dap]-T-H-[Dpa]-P-C-I-[Lys(1PEG2_1PEG2_Ahx_C18_Diacid)]-[bhPhe]-[(D)Lys]-C-NH2
B3: Seq. No. 563 (peptide)
peptide: XETHXPCIXXXC
modifications: not fully specified; [Isovaleric Acid]-E-T-H-[Dpa]-P-C-I-[(D)Lys]-[bhPhe]-[Lys(1PEG2_1PEG2_IsoGlu_C18_Diacid)]-C-OH
B4: Seq. No. 565 (peptide)
peptide: XEXHXPCIXXXC
modifications: not fully specified; [Isovaleric Acid]-E-[N-(hydroxyethyl)Gly]-H-[Dpa]-P-C-I-[Lys(1PEG2_1PEG2_Ahx_C18_Diacid)]-[bhPhe]-[(D)Lys]-C-NH2

biological target: T1, human ferroportin (SLC40A1) fused in frame with GFP, stably expressed in HEK293 cells (human, UniProt Q9NP59 1-571); assay: cell-based or functional assay; details: not given
T1 sequence (looked up): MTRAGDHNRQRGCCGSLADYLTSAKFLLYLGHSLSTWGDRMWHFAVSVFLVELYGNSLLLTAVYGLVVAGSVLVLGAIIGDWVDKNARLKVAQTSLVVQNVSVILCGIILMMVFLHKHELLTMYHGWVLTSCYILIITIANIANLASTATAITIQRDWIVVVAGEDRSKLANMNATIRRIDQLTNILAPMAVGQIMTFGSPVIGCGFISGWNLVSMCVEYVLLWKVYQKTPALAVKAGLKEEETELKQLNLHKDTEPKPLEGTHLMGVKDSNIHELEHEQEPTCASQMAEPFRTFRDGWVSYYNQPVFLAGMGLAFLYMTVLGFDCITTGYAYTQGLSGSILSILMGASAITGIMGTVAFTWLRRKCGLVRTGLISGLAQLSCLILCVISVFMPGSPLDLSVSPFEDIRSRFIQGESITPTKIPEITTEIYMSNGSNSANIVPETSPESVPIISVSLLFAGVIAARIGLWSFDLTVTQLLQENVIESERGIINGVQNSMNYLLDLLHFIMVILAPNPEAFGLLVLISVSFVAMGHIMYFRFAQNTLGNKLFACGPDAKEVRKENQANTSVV

Going from Isovaleryl-ETH[Dip]PCCK([AEEA-AEEA-Ahx-C18 diacid])[β3hF][dK]-NH2 (not fully specified (bridges); cysteine pairing not given here) [Seq. No. 577] to Isovaleryl-ETH[Dip]LCI[dK][β3hF]K([Ahx-Palmitoyl])[dK]C-NH2 (not fully specified (bridges); cysteine pairing not given here) [Seq. No. 569], the “IC50: FPN internalisation” value rises from 2 nM to 50.2 nM (25-fold).

Going from Isovaleryl-ETH[Dip]PCA[dK][β3hF]K([Ahx-Palmitoyl])[dK]C-NH2 (not fully specified (bridges); cysteine pairing not given here) [Seq. No. 573] to Isovaleryl-ETH[Dip]SCIK([AEEA-AEEA-γGlu-C18 diacid])[β3hF][dK]C-NH2 (not fully specified (bridges); cysteine pairing not given here) [Seq. No. 558], the “IC50: FPN internalisation” value rises from 6.47 nM to 39.2 nM (6.1-fold).

Compared with Isovaleryl-ETH[Dip][NMeA]CI[dK][β3hF]K([Ahx-Palmitoyl])[dK]C-NH2 (not fully specified (bridges); cysteine pairing not given here) [Seq. No. 567], B1 is 22-fold higher in “IC50: FPN internalisation” value: 30.8 nM for the first, 687 nM for the second.

Isovaleryl-ETHLPCI[dK][β3hF]K([Ahx-Palmitoyl])[dK]C-NH2 (not fully specified (bridges); cysteine pairing not given here) [Seq. No. 570] and Isovaleryl-ETH[Dip]PCI[dK]LK([Ahx-Palmitoyl])[dK]C-NH2 (not fully specified (bridges); cysteine pairing not given here) [Seq. No. 568] are within 1.5-fold of each other in “IC50: FPN internalisation” value: 12.7 nM for the first, 11.8 nM for the second.

Compared with Isovaleryl-ETH[Dip]PCI[dK]K(Acryloyl)K([Ahx-Palmitoyl])[dK]C-NH2 (not fully specified (bridges); cysteine pairing not given here) [Seq. No. 556], Isovaleryl-ETHK(Acryloyl)PCI[dK][β3hF]K([Ahx-Palmitoyl])[dK]C-NH2 (not fully specified (bridges); cysteine pairing not given here) [Seq. No. 553] is 25-fold higher in “IC50: FPN internalisation” value: 15.4 nM for the first, 385 nM for the second.

Going from Isovaleryl-ETH[Dip]PC[dK](Acryloyl)[dK][β3hF]K([Ahx-Palmitoyl])[dK]C-NH2 (not fully specified (bridges); cysteine pairing not given here) [Seq. No. 555] to Isovaleryl-ETH[Dip]PC[dK](Gal)K([AEEA-AEEA-Ahx-C18 diacid])[β3hF][dK]C-NH2 (not fully specified (bridges); cysteine pairing not given here) [Seq. No. 560], the “IC50: FPN internalisation” value rises from 17.4 nM to 400 nM (23-fold).

Going from B2 to Isovaleryl-ETH[Dip]PC[4Amb][β3hF]K([Ahx-Palmitoyl])[dK]C-NH2 (not fully specified (bridges); cysteine pairing not given here) [Seq. No. 566], the “IC50: FPN internalisation” value rises from 14.2 nM to 31.8 nM (2.2-fold).

First: {Cyclohexanoic Acid}-ETH[Dip]PCK([AEEA-AEEA-γGlu-C18 diacid])[β3hF][dK]C-NH2 (not fully specified (bridges); cysteine pairing not given here) [Seq. No. 562]
Second: B3
The “IC50: FPN internalisation” value of the first is 65-fold lower: 18.4 nM for the first, 1190 nM for the second.

First: Isovaleryl-ETH[Dip]ACI[dK][β3hF]K([Ahx-Palmitoyl])[dK]C-NH2 (not fully specified (bridges); cysteine pairing not given here) [Seq. No. 574]
Second: Isovaleryl-ETH[Dip]PCK(Gal)K([AEEA-AEEA-Ahx-C18 diacid])[β3hF][dK]C-NH2 (not fully specified (bridges); cysteine pairing not given here) [Seq. No. 561]
The “IC50: FPN internalisation” value of the first is 1.8-fold lower: 10.2 nM for the first, 17.9 nM for the second.

Going from Isovaleryl-ETH[Dip]K(Acryloyl)CI[dK][β3hF]K([Ahx-Palmitoyl])[dK]C-NH2 (not fully specified (bridges); cysteine pairing not given here) [Seq. No. 554] to B4, the “IC50: FPN internalisation” value falls from 103 nM to 18.7 nM (5.5-fold).

First: Isovaleryl-ETH[Dip]PC[dK][β3hF]K([Ahx-Palmitoyl])[dK]C-NH2 (not fully specified (bridges); cysteine pairing not given here) [Seq. No. 571]
Second: Isovaleryl-ETH[Dip]PCI[dK]AK([Ahx-Palmitoyl])[dK]C-NH2 (not fully specified (bridges); cysteine pairing not given here) [Seq. No. 572]
The “IC50: FPN internalisation” value of the first is 3.7-fold higher: 31.2 nM for the first, 8.47 nM for the second.

For Isovaleryl-ETHAPCI[dK][β3hF]K([Ahx-Palmitoyl])[dK]C-NH2 (not fully specified (bridges); cysteine pairing not given here) [Seq. No. 575], the “IC50: FPN internalisation” value was 83 nM.

tested on: LAD2 cells; assay: not given; assay type: cell-based, human; details: not given
Source text: In anaphylactoid reactions, the main mechanism involves the direct stimulation of mast cells or basophils, leading to the release of anaphylactic mediators such as histamine and β-hexosaminidase. A recent study by McNeil et al. (McNeil B D et al., 2015) reported that MrgprX2, a specific membrane receptor on human mast cells, induces anaphylactoid reactions. The LAD2 (Laboratory of Allergic Diseases 2) human mast cell line, derived from human mast cell sarcoma/leukemia (Kirshenbaum et al., 2003), is commonly employed to study anaphylactoid reactions, because its biological properties are identical to those of primary human mast cells, including the overexpression of the MrgprX2 receptor and sensitivity towards degranulating peptides (Kulka et al., 2008). The release of anaphylactic mediators such as f-hexosaminidase, is assessed by fluorometric quantification.
On the day of the assay, serial dilutions of compounds were added to LAD2 cells plated at 20000 cells/well in a 96-well plate. After incubation for 30 minutes, the amount of β-hexosaminidase released into the supernatants and in cell lysates was quantified using the fluorogenic substrate 4-methylumbelliferyl-N-acetyl-b-D-glucosaminide. Dose-response curves were generated by plotting the % of β-hexosaminidase release (y-axis) against the concentrations of peptides tested (x-axis). […]. (Table 2D).

CC[C@H](C)[C@@H]1NC(=O)[C@@H](NC(=O)[C@@H]2CCCN2C(=O)[C@@H](NC(=O)[C@H](Cc2cnc[nH]2)NC(=O)[C@@H](NC(=O)[C@H](CCC(=O)O)NC(=O)CC(C)C)[C@@H](C)O)C(c2ccccc2)c2ccccc2)CSSC[C@@H](C(N)=O)NC(=O)[C@@H](CCCCNC(=O)CCOCCOCCOCCOCCOCCOCCOCCOC)NC(=O)C[C@H](Cc2ccccc2)NC(=O)[C@H](CCCCNC(=O)COCCOCCNC(=O)COCCOCCNC(=O)CCCCCNC(=O)CCCCCCCCCCCCCCCCC(=O)O)NC1=O [Compound 256, Isovaleric Acid-E-T-H-[Dpa]-P—C—I-[Lys(1PEG2_1PEG2_Ahx_C18_Diacid)]-[bhPhe]-[(D)Lys(PEG7_OMe)]—C—NH2] was tested, and the EC50 was > 100000 nM.

same assay, conditions: LAD2 mast cells, β-hexosaminidase release, 30 minutes incubation; read-out: EC50: LAD2

Compared with “Isovaleric Acid-E-T-H—F—P—C—I-[Lys(IsoGlu_C18_Diacid)]-F-E-P—R—S—K-G-C—K—NH2 [Compound 222]”, “Isovaleric Acid-E-T-H-F—P—C—I-[Lys(IsoGlu_Palm)]-F-E-P—R-S—K-G-C—NH2 [Compound 225]” is lower in EC50: > 100000 nM for the first, 4800 nM for the second.

Going from “Isovaleric Acid-E-T-H-[Dpa]-P-[Cys]-I-[Lys(2Peg11′_IsoGlu_C18)]-[bhPhe]-[(D)Lys]-[Cys]-NH2 [Compound 112]” to “Isovaleric Acid-E-T-H-[Dpa]-P—C—I-[Lys(PEG12_C16_Diacid)]-[bhPhe]-[(D)Lys]-C—NH2 [Compound 265]”, the EC50 rises from 520 nM to 23100 nM (44-fold).

First: Isovaleric Acid-E-T-H-[Dpa]-P—C—I-[Lys(PEG12_C18_Diacid)]-[bhPhe]-[(D)Lys(PEG11_OMe)]—C—NH2 [Compound 293]
Second: Isovaleric Acid-E-T-H—F—P—C—I-[Lys(IsoGlu_Palm)]-F-E-P—R—S—K-G-[Pen]-K—NH2 [Compound 224]
The EC50 of the first is higher: > 100000 nM for the first, 2600 nM for the second.

In the case of “Isovaleric Acid-E-T-H-[Dpa]-P—C—I-[Lys(1PEG8_IsoGlu_C18_Diacid)]-[bhPhe]-[(D)Lys]-C—NH2 [Compound 238]”, the EC50 is reported as > 100000 nM.
